Source: PMC12037675, “Design of self-emulsifying oral delivery systems for semaglutide: reverse micelles versus hydrophobic ion pairs” (Drug Delivery and Translational Research, 2024)

Tests used:
[1] = Solubility of (poly)peptides in lipid phases via reverse micelles (dry addition) or HIP; format: physicochemical
Protocol: (Poly)peptide loaded RM were prepared utilizing 200 mM of surfactants dissolved within the oily phase (GML/C8 (1:4; m/m), GMCC/C8 (1:4; m/m) and GMCC/GML (1:4; m/m)) in order to guarantee formation of reverse micelles. Loaded reverse micelles were prepared by the addition of semaglutide to surfactant-oil solutions (200 mM ELA or 200 mM DOC) resulting in a final concentration of 50 mg/mL. The mixtures were vortexed and treated with ultrasound for 30 min before incubation at 1200 rpm at room temperature (RT). Formation of reverse micelles by dry addition method, describing the direct addition of the API in powdered form to lipophilic solvents without use of any additional solvents, was investigated for semaglutide and three further (poly)peptides for comparison. In that regard, semaglutide with a molecular weight of 4.1 kDa was compared to colistin representing the smallest investigated peptide (1.1 kDa). In addition, two larger polypeptides, lysozyme (LYS, 14.4 kDa) and bovine serum albumin (BSA, 66.4 kDa) were investigated. At predetermined time points the dissolved (poly)peptide in supernatant was quantified by HPLC after centrifugation at 12,045 RCF for 10 min.

[2] = tested on: Caco-2 monolayer; assay: Caco-2 permeation study; format: in vitro ADME, human; conditions: Caco-2 on 24-well Transwell, 21 days, apical to basolateral, HBS pH 6.8, SEDDS 0.05% (v/v), 6 h; ELISA; means n = 4
Protocol: The ability of native semaglutide as well as semaglutide-RM loaded SEDDS and SEDDS containing HIP to permeate the intestinal epithelium was investigated using Caco-2 cells. Caco-2 cell line was seeded on a 24-well Transwell filters plate at a cell density of 1.25 × 10^5 cells/cm^2. Cells were cultivated for 21 days replacing the media every second day. On the day of the experiment, cells were washed twice using sterile HBS buffer pH 6.8. To start the experiment after the equilibration period, the buffer was removed and replaced with 100 µL of either native semaglutide solution in sterile HBS buffer pH 6.8 or semaglutide-RMs loaded SEDDS diluted to a concentration of 0.05% (v/v) with sterile HBS buffer pH 6.8. Sterile HBS buffer (500 µL) was added to basolateral side. At predetermined time points, 100 µL were withdrawn from basolateral chambers and replaced with prewarmed HBS. The amount of semaglutide in the basolateral chamber was measured through ELISA (KRIBIOLISA™ Semaglutide ELISA, Krishgen BioSystems, US). Transepithelial electric resistance (TEER) in a range of 1200–3300 ohm/cm^2 were measured ensuring integrity of cell monolayers (Evom2, World Precision Instrument Inc., USA).

[3] = Hydrophobic ion pairing with ethyl lauroyl arginate: precipitation efficiency; format: physicochemical; conditions: 1:1 charge ratio (peptide:surfactant), peptide in 0.001 M NaOH, 2 h, 400 rpm, ambient temperature; mean ± SD
Protocol: Hydrophobic ion pairs were formed in order to increase lipophilicity of semaglutide according to previous studies. The peptide was dissolved in 0.001 M NaOH in a concentration of 10 mg/ml to obtain a negative net charge. Ethyl lauroyl arginate, as a cationic counter ion was dissolved in demineralized water. Equal amounts (500 µL: 500 µL) of peptide and surfactant solution were combined corresponding to a charge ratio of 1:1 (peptide:surfactant). Samples were agitated at 400 rpm for 2 h on a thermomixer (Eppendorf, Austria) at ambient temperature. Precipitates were separated from the solution by centrifugation at 12,045 RCF for 10 min (Minispin, Eppendorf, Austria). Precipitation efficiency was determined according to the following equation:1 [drawing 1]

[4] = log D lipid phase/water; format: physicochemical
Protocol: Retention of drug within lipid phase after emulsification is crucial for the active ingredient to reach the absorption membrane in intact form. Thus, high log Dlipid phase/water values are substantial for lipophilic complexes of semaglutide. In brief, 200 µL of peptide loaded RM or HIP complexes corresponding to 2 mg of semaglutide in the lipid phases GML/C8 (1:4; m/m), […] were underlaid with 200 µL of demineralized water and incubated at 300 rpm on a thermomixer for 24 h. In the following samples were centrifuged at 12,045 RCF for 10 min and 100 µL aliquots from both phases were withdrawn and the amount of peptide was quantified by HPLC. The distribution coefficient was calculated according to Eq. 3:3 [drawing 5]
where [drawing 6] corresponds to peptide concentration in the lipophilic phase after incubation and [drawing 7] to peptide concentration in the water phase after incubation. Log Dlipid phase/water values for reference (poly)peptides were determined in the same manner.

[5] = cited from earlier work

Compound: CC[C@H](C)[C@H](NC(=O)[C@H](Cc1ccccc1)NC(=O)[C@H](CCC(=O)O)NC(=O)[C@H](CCCCNC(=O)COCCOCCNC(=O)COCCOCCNC(=O)CC[C@H](NC(=O)CCCCCCCCCCCCCCCCC(=O)O)C(=O)O)NC(=O)[C@H](C)NC(=O)[C@H](C)NC(=O)[C@H](CCC(N)=O)NC(=O)CNC(=O)[C@H](CCC(=O)O)NC(=O)[C@H](CC(C)C)NC(=O)[C@H](Cc1ccc(O)cc1)NC(=O)[C@H](CO)NC(=O)[C@H](CO)NC(=O)[C@@H](NC(=O)[C@H](CC(=O)O)NC(=O)[C@H](CO)NC(=O)[C@@H](NC(=O)[C@H](Cc1ccccc1)NC(=O)[C@@H](NC(=O)CNC(=O)[C@H](CCC(=O)O)NC(=O)C(C)(C)NC(=O)[C@@H](N)Cc1cnc[nH]1)[C@@H](C)O)[C@@H](C)O)C(C)C)C(=O)N[C@@H](C)C(=O)N[C@@H](Cc1c[nH]c2ccccc12)C(=O)N[C@@H](CC(C)C)C(=O)N[C@H](C(=O)N[C@@H](CCCNC(=N)N)C(=O)NCC(=O)N[C@@H](CCCNC(=N)N)C(=O)NCC(=O)O)C(C)C [semaglutide]
- Maximum solubility within reverse micelles ([1]; after 48 h to 72 h, dry addition, 200 mM ELA or DOC, 50 mg/mL added, RT, HPLC, means n ≥ 3): ~100%
- Solubility in RM in comparison to HIP ([1]; best performing lipid phase glycerol monocaprylocaprate:caprylic acid 1:4 (m/m)): at least 2 fold
- Apparent permeability coefficient (Papp) [2]: significantly lower Papp value

Compound: lysozyme [14.4 kDa reference polypeptide]
- Solubility in RM, times lower compared to semaglutide ([1]; reverse micelles, dry addition, pronounced increase only after 72 h): about 10 times
- Precipitation efficiency of HIP with ethyl lauroyl arginate [3]: 0.0 ± 1.7%
- Improvement in lipophilicity in RM compared to the native peptide ([4]; log D lipid phase/water, RM): up to 600 fold
- Isoelectric point (IEP) [5]: 11.0

Compound: colistin [1.1 kDa reference peptide]
- Change in lipophilicity (log D lipid phase/water) in RM ([4]; RM formed with docusate): enhanced lipophilicity
- Change in lipophilicity (log D lipid phase/water) in RM ([4]; RM formed with ethyl lauroyl arginate): almost no increase in lipophilicity
- Isoelectric point (IEP) [5]: 5.0

Compound: bovine serum albumin [66.4 kDa reference polypeptide]
- Solubility within reverse micelles ([1]; even after prolonged incubation time, dry addition, 200 mM surfactant, RT, HPLC): below 1 mg/mL
- Precipitation efficiency of HIP with ethyl lauroyl arginate [3]: 39.1 ± 2.2%
- Isoelectric point (IEP) [5]: 5.0
